For assay [1], the target named is T1, Mouse BMP1-3: 126-707 (mouse, UniProt P98063 126-707).
T1 sequence (looked up): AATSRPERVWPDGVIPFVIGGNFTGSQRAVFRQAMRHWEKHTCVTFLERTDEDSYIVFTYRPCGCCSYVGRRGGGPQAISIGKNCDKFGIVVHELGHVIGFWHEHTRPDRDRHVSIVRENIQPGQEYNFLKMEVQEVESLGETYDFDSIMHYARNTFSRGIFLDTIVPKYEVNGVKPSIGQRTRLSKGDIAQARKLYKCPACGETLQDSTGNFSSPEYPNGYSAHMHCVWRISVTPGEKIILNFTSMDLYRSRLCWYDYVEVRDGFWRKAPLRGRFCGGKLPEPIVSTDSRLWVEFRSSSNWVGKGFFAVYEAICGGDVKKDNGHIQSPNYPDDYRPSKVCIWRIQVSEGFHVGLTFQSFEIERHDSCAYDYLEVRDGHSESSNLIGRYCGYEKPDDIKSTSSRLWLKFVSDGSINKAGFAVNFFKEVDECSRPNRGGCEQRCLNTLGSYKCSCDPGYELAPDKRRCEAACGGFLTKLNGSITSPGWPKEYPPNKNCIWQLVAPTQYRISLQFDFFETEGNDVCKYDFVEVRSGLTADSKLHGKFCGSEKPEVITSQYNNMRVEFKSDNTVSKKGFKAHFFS
Put plainly: cell-based or functional assay.

The target of assay [2] is T2, Human BMP1-1 (human, UniProt P13497-2 121-730, limits assumed).
T2 sequence (looked up): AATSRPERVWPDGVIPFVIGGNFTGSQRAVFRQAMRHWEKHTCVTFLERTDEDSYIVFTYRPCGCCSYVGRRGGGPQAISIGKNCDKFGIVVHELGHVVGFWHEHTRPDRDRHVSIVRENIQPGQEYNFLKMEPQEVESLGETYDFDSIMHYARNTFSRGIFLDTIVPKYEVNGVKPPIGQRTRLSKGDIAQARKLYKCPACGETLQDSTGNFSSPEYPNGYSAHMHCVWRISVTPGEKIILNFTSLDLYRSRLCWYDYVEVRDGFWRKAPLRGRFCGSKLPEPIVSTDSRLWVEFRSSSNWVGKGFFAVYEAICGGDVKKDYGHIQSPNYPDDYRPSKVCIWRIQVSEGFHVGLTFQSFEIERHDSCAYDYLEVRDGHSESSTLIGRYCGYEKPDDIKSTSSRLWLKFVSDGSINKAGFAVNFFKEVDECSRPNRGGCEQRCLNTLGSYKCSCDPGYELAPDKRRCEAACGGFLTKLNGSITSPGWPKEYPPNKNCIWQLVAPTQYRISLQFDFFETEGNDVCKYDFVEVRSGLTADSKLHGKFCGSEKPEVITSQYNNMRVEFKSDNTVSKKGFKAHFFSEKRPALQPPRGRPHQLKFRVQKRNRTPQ
Put plainly: cell-based or functional assay.

In the next assay the target is T3, Mouse TLL1 (mouse, UniProt Q62381 148-1013, limits assumed).
T3 sequence (looked up): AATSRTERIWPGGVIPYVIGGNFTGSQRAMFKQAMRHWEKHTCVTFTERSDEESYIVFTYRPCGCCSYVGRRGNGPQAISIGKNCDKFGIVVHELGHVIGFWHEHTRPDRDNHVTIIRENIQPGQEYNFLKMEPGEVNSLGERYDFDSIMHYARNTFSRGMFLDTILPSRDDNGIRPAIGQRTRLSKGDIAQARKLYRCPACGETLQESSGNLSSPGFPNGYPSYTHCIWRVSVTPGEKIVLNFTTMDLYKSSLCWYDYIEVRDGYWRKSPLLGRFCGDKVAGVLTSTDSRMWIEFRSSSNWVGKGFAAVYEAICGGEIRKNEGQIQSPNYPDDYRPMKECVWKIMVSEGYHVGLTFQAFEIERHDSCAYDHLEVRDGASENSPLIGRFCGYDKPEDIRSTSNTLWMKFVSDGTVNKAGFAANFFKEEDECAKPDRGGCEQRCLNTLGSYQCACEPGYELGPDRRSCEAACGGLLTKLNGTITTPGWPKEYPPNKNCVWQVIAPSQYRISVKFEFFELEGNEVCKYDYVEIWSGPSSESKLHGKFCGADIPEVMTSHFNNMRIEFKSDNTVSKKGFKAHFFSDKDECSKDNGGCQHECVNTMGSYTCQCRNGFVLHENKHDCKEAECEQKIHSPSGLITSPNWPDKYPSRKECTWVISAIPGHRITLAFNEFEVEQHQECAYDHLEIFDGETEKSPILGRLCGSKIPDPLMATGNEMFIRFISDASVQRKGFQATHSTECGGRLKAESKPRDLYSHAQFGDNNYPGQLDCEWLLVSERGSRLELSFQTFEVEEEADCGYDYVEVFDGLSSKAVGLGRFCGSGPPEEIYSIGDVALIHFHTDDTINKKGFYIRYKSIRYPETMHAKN
Put plainly: cell-based or functional assay.

The target in the next assay is T4, Cyno TLL1 (cyno, UniProt A0A1D5QYV0 148-1013 (rhesus entry)).
T4 sequence: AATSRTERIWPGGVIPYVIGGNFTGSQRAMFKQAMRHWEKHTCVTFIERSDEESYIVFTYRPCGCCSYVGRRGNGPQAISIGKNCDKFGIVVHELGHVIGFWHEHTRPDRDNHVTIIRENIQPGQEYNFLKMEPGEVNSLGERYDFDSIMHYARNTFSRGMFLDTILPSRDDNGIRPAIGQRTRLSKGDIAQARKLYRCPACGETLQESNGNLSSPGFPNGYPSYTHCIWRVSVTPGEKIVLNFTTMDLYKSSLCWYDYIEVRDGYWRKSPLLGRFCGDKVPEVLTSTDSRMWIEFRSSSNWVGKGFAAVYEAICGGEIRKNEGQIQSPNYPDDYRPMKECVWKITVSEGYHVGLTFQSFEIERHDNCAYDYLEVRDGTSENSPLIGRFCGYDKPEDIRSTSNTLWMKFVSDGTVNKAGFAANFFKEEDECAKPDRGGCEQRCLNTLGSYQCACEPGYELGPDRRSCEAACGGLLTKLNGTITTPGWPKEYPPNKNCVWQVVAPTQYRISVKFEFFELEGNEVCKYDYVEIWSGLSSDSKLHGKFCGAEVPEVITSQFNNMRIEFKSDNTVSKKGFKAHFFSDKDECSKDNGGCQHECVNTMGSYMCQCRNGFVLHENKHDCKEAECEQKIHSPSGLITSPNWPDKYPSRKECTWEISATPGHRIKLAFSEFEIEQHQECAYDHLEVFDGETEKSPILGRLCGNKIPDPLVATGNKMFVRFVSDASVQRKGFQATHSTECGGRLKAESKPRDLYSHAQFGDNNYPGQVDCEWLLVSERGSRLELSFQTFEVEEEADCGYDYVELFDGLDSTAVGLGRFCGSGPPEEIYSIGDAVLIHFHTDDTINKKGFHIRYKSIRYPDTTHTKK
Put plainly: cell-based or functional assay.

The target in assay [3] is T2, Human BMP1-1. Put plainly: cell-based or functional assay. The source holds these as a separate data set.
Assay [4] addresses T5, Human BMP1 CD+CUB1 truncated antigen (human, UniProt P13497 121-434, limits assumed).
T5 construct: domain: CD+CUB1
T5 sequence (looked up): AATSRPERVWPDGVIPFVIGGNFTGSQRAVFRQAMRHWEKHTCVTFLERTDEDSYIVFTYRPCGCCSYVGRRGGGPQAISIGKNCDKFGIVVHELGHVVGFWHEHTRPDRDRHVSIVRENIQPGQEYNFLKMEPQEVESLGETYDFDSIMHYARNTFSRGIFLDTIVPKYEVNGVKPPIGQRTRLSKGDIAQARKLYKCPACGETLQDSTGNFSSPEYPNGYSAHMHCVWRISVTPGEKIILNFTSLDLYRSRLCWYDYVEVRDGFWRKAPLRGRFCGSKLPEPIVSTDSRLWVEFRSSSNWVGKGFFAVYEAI
Put plainly: SPR, mAb captured on protein A, HBS-EP. How it is done: The 16 lead panel antibodies expressed in HEK cells were evaluated for binding to a truncated version of human BMP containing the catalytic domain and truncated domain (Human BMP1 CD+CUB1 truncated antigen) by SPR using BIACORE T200. HBS-EP+ buffer was used and the experiment run at 25° C. Protein A was immobilised to a CM5 sensor chip via amine coupling. The lead panel antibodies were captured onto protein A surface. Human BMP1 CD+CUB1 was then passed over the captured antibodies at various concentrations.

The target of assay [5] is T6, Human TLL2 CD+CUB1 truncated antigen (human, UniProt Q9Y6L7 150-463, limits assumed).
T6 construct: domain: CD+CUB1
T6 sequence (looked up): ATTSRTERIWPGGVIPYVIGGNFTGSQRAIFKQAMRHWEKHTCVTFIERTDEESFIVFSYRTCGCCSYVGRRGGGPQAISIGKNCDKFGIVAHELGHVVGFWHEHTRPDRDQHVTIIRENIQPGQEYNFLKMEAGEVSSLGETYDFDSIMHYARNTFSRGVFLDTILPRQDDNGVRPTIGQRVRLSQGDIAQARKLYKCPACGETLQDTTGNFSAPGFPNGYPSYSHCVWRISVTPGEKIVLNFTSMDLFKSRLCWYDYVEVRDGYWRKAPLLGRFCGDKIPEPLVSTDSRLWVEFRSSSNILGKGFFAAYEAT
Put plainly: SPR, captured mAb, HBS-EP. How it is done: (§1) Both antibodies 13Y039-4B06-4334 and 13Y039-3E07-2944 and the reverse chimeric antibodies were evaluated for binding to human TLL2 CD+CUB1 and mouse BMP1 CD+CUB1 truncated antigens by SPR on a BIACORE T200. Protein A/G was immobilised to a CM5 sensor chip via amine coupling and the antibodies were captured to the protein A/G surface. The antigens were passed over the captured antibody at various concentrations. The measured affinities to human TLL2 CD+CUB1 are shown in Table 2 and the measured affinities to mouse BMP1 CD+CUB1 are shown in Table 3.
A general note: In SPR one partner is held on a chip, and binding of the other changes the refractive index at the surface.

Assay [6] has as its target T7, Mouse BMP1 CD+CUB1 truncated antigen (mouse, UniProt P98063 126-439, limits assumed).
T7 construct: domain: CD+CUB1
T7 sequence (looked up): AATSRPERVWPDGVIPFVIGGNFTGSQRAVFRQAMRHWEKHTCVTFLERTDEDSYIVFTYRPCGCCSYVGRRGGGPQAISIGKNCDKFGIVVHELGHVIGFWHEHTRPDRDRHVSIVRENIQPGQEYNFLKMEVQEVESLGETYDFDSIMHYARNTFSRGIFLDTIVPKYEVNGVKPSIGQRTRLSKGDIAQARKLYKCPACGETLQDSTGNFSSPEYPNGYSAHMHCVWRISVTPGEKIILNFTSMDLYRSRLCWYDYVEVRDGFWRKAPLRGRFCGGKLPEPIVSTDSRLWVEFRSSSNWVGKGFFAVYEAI
Put plainly: SPR, captured mAb, HBS-EP. How it is done: as §1

For assay [7], the target named is T6, Human TLL2 CD+CUB1 truncated antigen. Put plainly: SPR, captured mAb, HBS-EP. How it is done: as §1
This is another data set of the same source.

In assay [8] the target is T2, Human BMP1-1. Put plainly: cell-based or functional assay. This is another data set of the same source.
The target in assay [9] is T1, Mouse BMP1-3: 126-707. Put plainly: cell-based or functional assay. The source holds these as a separate data set.
Assay [10] has as its target T5, Human BMP1 CD+CUB1 truncated antigen. Put plainly: SPR, captured mAb, HBS-EP.
For assay [11] the target is unchanged. Put plainly: SPR, captured mAb, enzyme dilution buffer.

Several values for one entry are separate records, joined by “and”; a condition that tells them apart may be missing. Identical values can stand only once. Like-named read-outs stand apart in the source and are kept apart here.

B1: 13Y039-8F02-2949 (antibody, human IgG1, kappa, V domains shown)
VH: QVQLVQSGAEVKKPGSSVKVSCKASGGTFSEWAISWVRQAPGQGLEWMGAIIPKFGTAEYAQKFQGRVTITADESTSTAYMELSSLRSEDTAVYYCARGAKYYYAEDYMDVWGKGTTVTVSS
VL: DIQMTQSPSSVSASVGDRVTITCRASQGISSWLAWYQQKPGKAPKLLIYAASSLQSGVPSRFSGSGSGTDFTLTISSLQPEDFATYYCQQALSLPYTFGGGTKVEIKR
notes: Fully human IgG1 LAGA, kappa; HEK expressed
By Kd is commonly meant the equilibrium constant for the complex coming apart. A lower Kd goes with a tighter complex. B1: the figures for the “IC50 (read off the curve)” value with Mouse BMP1-3: 126-707 [1] and with Human BMP1-1 [3] were around 0.06 nM and around 0.5 nM, respectively. Besides, the “IC50, FRET enzyme activity, 62.5 pM huBMP1” value with Human BMP1-1 [2] worked out at 60 pM. In addition, the “IC50, FRET enzyme activity, 800 pM biotinylated mTLL-1” value with Mouse TLL1 amounted to 0.56 nM. In addition, the “IC50, FRET enzyme activity, 750 pM biotinylated cynoTLL-1” value with Cyno TLL1 is 20 pM. This molecule registered a Kd in [4] of 1.6 nM.

B2: 13Y039-4B06-4334 human variable region on mouse IgG2a LAGA Fc, mouse cKappa (Compound A) (antibody)
heavy: QVQLVQSGAEVKKPGASVKVSCKASGYTFLGYYMSWVRQAPGQGLEWMGWINPLSGETNYAQKFQGRVTMTRDTSISTAYMELSRLRSDDTAVYYCARDTGELDGMNWYFDLWGRGTLVTVSSAKTTAPSVYPLAPVCGDTTGSSVTLGCLVKGYFPEPVTLTWNSGSLSSGVHTFPAVLQSDLYTLSSSVTVTSSTWPSQSITCNVAHPASSTKVDKKIEPRGPTIKPCPPCKCPAPNLAGAPSVFIFPPKIKDVLMISLSPIVTCVVVDVSEDDPDVQISWFVNNVEVHTAQTQTHREDYNSTLRVVSALPIQHQDWMSGKEFKCKVNNKDLPAPIERTISKPKGSVRAPQVYVLPPPEEEMTKKQVTLTCMVTDFMPEDIYVEWTNNGKTELNYKNTEPVLDSDGSYFMYSKLRVEKKNWVERNSYSCSVVHEGLHNHHTTKSFSRTPGK
light: EIVLTQSPATLSLSPGERATLSCRASQSVSSYLAWYQQKPGQAPRLLIYDASNRATGIPARFSGSGSGTDFTLTISSLEPEDFAVYYCQQSDSWPPTFGGGTKVEIKRADAAPTVSIFPPSSEQLTSGGASVVCFLNNFYPKDINVKWKIDGSERQNGVLNSWTDQDSKDSTYSMSSTLTLTKDEYERHNSYTCEATHKTSTSPIVKSFNRNEC
notes: Reverse chimera; the printed variable regions are those of 4B06-4334; also called 13Y039-4B06-4334 reverse chimera mouse IgG2a LAGA; 13Y039-4B06-4334, mIgG2a LAGA
For B2, the equilibrium dissociation constant (Kd) in assay [5] was 3.54 nM; in assay [6] it was 0.82 nM and 1.98 nM; in assay [7], 3.55 nM; in assay [10] it was 2.33 nM; in [11], 0.04 nM. In addition, the “pKi, app, FRET enzyme activity, Human BMP1” value with Human BMP1-1 [8] amounted to 12.3. Also, the “pKi, app, FRET enzyme activity, Mouse BMP1” value with Mouse BMP1-3: 126-707 [9] was determined as 11.4.

The record behind these values is patent publication US20230279089A1 (GlaxoSmithKline, published 2023).
